Measured values published in article PMC2710508.

Key:
[1] = target: F-actin from chicken pectoral skeletal muscle (chicken) (UniProt P68139); assay: differential scanning calorimetry; tropomyosin 15 µM and TnT 70–170 18 µM with phalloidin (36 µM) stabilized F-actin (24 µM), 100 mM NaCl, 10 mM Hepes pH 7.0, 2 mM MgCl2, 1 mM DTT; three heating scans at 1°C/min; peak of unfolding/dissociation of actin-bound tropomyosin
[2] = target: F-actin from chicken pectoral skeletal muscle (chicken) (UniProt P68139); assay: co-sedimentation; tropomyosin 0.1–10 µM with 0.12–12 µM troponin T 70–170 (1.2× molar excess) and 5 µM F-actin, 20°C, 250 mM NaCl, 10 mM TrisHCl pH 7.5, 2 mM MgCl2, 0.5 mM DTT; pellets and supernatants by SDS-PAGE and densitometry; apparent constant (Kapp) and Hill coefficient from a fit to the Hill equation
F-actin = F-actin (UniProt P68133); assay: given as Ka; details: cited from earlier work

Work on “P5→P3 tropomyosin (residues 165–188 of P5 replace residues 88–111 of P3) (from UniProt P04692 1-284) (natural protein)” yielded a DSC TM of dissociation from F-actin (TM3) [1] of 37.6 °C, a DSC ΔΔH (with minus without F-actin) [1] of 37.6 kcal/mol and a Ka [2] of 1.33e+06 M⁻¹.
In the case of tropomyosin (from UniProt P09493), the association constant (Ka) (F-actin) is listed as 400 µM.
